Legend:
p21-D3 = target: T1, p21-D3 (UniProt P38936 60-164); assay: co-immunoprecipitation (anti-myc IP, anti-flag blot), co-transfected 293T cells
T1 construct: not shown: myc-tag from pcDNA3 vector
From the text: (§1) In order to determine the interacting regions of RX50 and p21, the 293T cells were co-transfected with RX50 and p21, RX50 and p21-D1, RX50 and p21-D2, RX50 and p21-D3, RX50 and p21-C, RX50 and p21-N, respectively. The transfected cells were allowed to grow 24 hrs before lysis. The supernatant was collected by centrifugation. The […] were subjected to immunoprecipitation with anti-myc antibody and Protein G. The product of co-immunoprecipitation was electrophoresised on SDS-PAGE, transferred onto a nitro cellulose membrane, and then subjected to immunoblot with a enzyme-labeled anti-flag antibody. […] It was inferred that the region of p21 interacting with RX50 was located between amino acid residue 40 to 60 of p21.

p21-C = target: T2, p21-C (UniProt P38936 91-164); assay: as above
T2 construct: not shown: myc-tag from pcDNA3 vector
From the text: as §1

T2 sequence (P38936 91-164): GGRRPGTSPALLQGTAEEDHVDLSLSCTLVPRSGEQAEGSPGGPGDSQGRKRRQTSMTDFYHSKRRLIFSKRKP
T1 sequence (P38936 60-164): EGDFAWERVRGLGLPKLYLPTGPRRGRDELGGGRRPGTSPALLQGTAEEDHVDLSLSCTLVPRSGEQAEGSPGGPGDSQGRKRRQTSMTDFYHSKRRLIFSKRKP

- binding result (p21-D3): no binding
- binding result (p21-C): no binding
B1: Flag-RX50 (enzyme)
chain: MHGYFGCNAAAEPGYSAFVGTPQICVTKFSTRNCQGMDSVIKPLDTIPEDKKVRVQRTQSTFDPFEKPANQVKRVHSENNACINFKTSSTGKESPKVRRHSSPSSPTSPKFGKADSYEKLEKLGEGSYAYVYKGKSKVNGKLVALKVIRLQEEEGTPFTAIREASIIKGLKHANIVLLHDIIHTKETLTLVFEYYHTDLCQYMDKHPGGLHPDNVKLFLFQLLRGLSYIHQRYILHRDLKPGNLLISDTGELKLADFGLAKAKSVPSHTTSNEVVYLWYRPPDVLLGSTEYSTCLDMWGVGCIFVEMIQGVAAFPGMKDIQDQLERIFLVLGTPNEDTWPGVHSLPHFKPERFTLYSSKNLRQAWNKLSYVNHAEDLASKLLQCSPKNRLSAQAALSHEYFSDLPPRLWELTDMSSIFTVPNVRLQPEAGESMRAFGKNNSYGKSLSNSKH
notes: Expressed in transfected 293T cells; also called RX50 protein; not shown: N-terminal flag-tag from modified pcDNA3.1

From patent US20070020269A1 (published 2007)
